Results published in EP3150637A1 (F. Hoffmann-La Roche AG, dated 2017).

Biological target: T1, human VEGFA-121 (VEFG-A-121-His) (human, UniProt P15692-9 27-147)
T1 construct: Captured on an anti-His antibody surface; not shown: His tag
T1 sequence (looked up): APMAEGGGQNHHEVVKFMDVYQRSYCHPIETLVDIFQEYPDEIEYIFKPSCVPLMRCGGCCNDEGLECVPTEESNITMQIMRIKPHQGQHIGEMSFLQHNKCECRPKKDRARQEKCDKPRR
Assay: SPR (Biacore T200), VEGF-A-121-His captured on anti-His, antibody in solution, Langmuir 1:1

koff: 6.11e-05 s⁻¹
B1: Ang2VEGF-0477 (bispecific antibody, human IgG1, kappa)
light 1: QPGLTQPPSVSVAPGQTARITCGGNNIGSKSVHWYQQKPGQAPVLVVYDDSDRPSGIPERFSGSNSGNTATLTISRVEAGDEADYYCQVWDSSSDHYVFGTGTKVTVLRTVAAPSVFIFPPSDEKLKSGTASVVCLLNNFYPREAKVQWKVDNALQSGNSQESVTEQDSKDSTYSLSSTLTLSKADYEKHKVYACEVTHQGLSSPVTKSFNRGEC
heavy 1: not shown
light 2: DIQMTQSPSSLSASVGDRVTITCSASQDISNYLNWYQQKPGKAPKVLIYFTSSLHSGVPSRFSGSGSGTDFTLTISSLQPEDFATYYCQQYSTVPWTFGQGTKVEIKSSASTKGPSVFPLAPSSKSTSGGTAALGCLVKDYFPEPVTVSWNSGALTSGVHTFPAVLQSSGLYSLSSVVTVPSSSLGTQTYICNVNHKPSNTKVDKKVEPKSC
heavy 2: not shown
notes: Bivalent bispecific CrossMAb CH1-CL
